Data: PMC7857395 (2020)

B1: S2E12 Fab fragment (Fab, V domains shown)
VH: not shown
VL: DIVLTQTPGTLSLSPGERATLSCRASQSVSSSYLAWYQQKPGQAPRLLIYGASSRATGIPDRFSGSGSGTDFTLTISRLEPEDFAVYYCQQYVGLTGWTFGQGTKVEIK
B2: S2M11 Fab fragment (Fab, V domains shown)
VH: EVQLVQSGAEVKKPGASVKVSCKASGYTFTGYYMHWVRQAPGQGLEWMGWINPISSGTSYAQTFQGRVTMTSDTSITTAYMELSRLRSDDTAVYYCARAAPFYDFWSGYSYFDYWGQGTLVTVSS
VL: not shown

Target: SARS-CoV-2 S receptor-binding domain (RBD) (SARS-CoV-2, UniProt P0DTC2)
Assay: SPR

Binder | Kd [nM]
B1 | 1.6
B2 | 66
